The assay addresses streptolysin O (SLO) isolated from group A Streptococcus (Streptococcus pyogenes (group A Streptococcus)) (UniProt P0C0I3). Kind of assay: other fluorescence titration; SLO at 2.0×10^−8 M mixed with HSA from 0 M to 4.0×10^−8 M; fluorescence between 300 nm and 400 nm, excitation 280; apparent Kd from Eq. 1.
Sequence of UniProt P0C0I3 (P0C0I3 34-571): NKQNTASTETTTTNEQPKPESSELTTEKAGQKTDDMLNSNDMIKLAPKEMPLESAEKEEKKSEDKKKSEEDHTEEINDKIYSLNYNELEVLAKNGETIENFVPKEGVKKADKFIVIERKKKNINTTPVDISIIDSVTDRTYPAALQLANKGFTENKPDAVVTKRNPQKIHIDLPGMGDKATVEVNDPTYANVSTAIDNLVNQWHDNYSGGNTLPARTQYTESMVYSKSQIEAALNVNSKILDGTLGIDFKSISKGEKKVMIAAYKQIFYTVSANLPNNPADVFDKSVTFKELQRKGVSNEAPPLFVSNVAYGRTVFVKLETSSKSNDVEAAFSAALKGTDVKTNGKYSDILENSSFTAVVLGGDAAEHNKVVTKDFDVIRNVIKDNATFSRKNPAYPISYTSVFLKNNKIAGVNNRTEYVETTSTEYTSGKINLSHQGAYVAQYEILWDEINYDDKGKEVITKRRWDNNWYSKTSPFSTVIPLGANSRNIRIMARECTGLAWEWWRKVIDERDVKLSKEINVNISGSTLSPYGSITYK

Consider “L305A/F374A 6×His-tag-HSA (double mutant Leu305Ala/Phe374Ala) (natural protein)”, for which the Kd was 7.3 nM.

Values taken from publication PMC7752801.
